Experimental data: patent US20250136701A1 (GO THERAPEUTICS, published 2025)
Substitutions are numbered along the chain they refer to.

T1: cMET-Tn peptide PTKSFISGGSTITGVGKNLN, glycosylated with GalNAc on the serine and threonine residues (O-linked GalNAc on the serine at position 10 and the threonine at position 11; N-terminal biotin in the form described for Biacore and Octet)
T1 construct: Synthetic 20-residue glycopeptide of cMET; GalNAc sites not given; also called Tn-glycosylated cMET peptide; cMET glycopeptide
T1 peptide: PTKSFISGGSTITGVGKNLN

B1: 16E12.1D9.1B11 (antibody, V domains shown)
VH: QVQLQQSDAELVKPGASVKISCKASGYTFTDHAIHWVKQKPEQGLEWIGYFSPGNDDVRYSEKFKGKATLTADKSSSTAYMQLNSLTSEDSAVYFCKRSLPGDFDYWGQGTTLTVSS
VL: DVQISQSPSYLAASPGETITINCRASKSINNYLVWYQEKPGKTIKPLIYSGSTLQTGTPSRFSGSGSGTDFSLTISSLEPEDFAMYYCQQHNEYPFTFGAGTKLELK
notes: Mouse monoclonal antibody from a hybridoma
B2: 14E9 (antibody, V domains shown)
VH: QEQLVESGGGLVEPGASLTLTCKASGIDFSSYWICWVRQAPGKGLEWVGCIYTGSGGNTYYATWAKGRFTVSETSSTTVTLRMTSLTAADTATYFCARMGYSAGYIGATYITVGAFNLWGQGTLVTVSS
VL: DVVMTQTPASVGAAVGGTVTIKCQASQSISNWLAWYQQKPGQPPKLLIYSASYLESGVPSRFSGSGSGTEFTLTISDLECADAATYYCQCTYGSSGDSGSWDFGGGTEVVVKG
notes: Rabbit monoclonal antibody cloned from B cells of immunised New Zealand White rabbits
B3: 15C4.1D8.1G2 (antibody, V domains shown)
VH: B1 VH with D56G, V58I, R59K, S61N, D103P, F104M, Y106C, T112S, L113V
VL: NIVMTQSPKSMSMSVGERVTLSCKASENVGIYVSWYQQKPEQSPKLLIYGPSNRYTGVPDRFTGSGSATDFTLTISSVQAEDLADYHCGQSYSYPFTFGSGTKLEIK
notes: Mouse monoclonal antibody from a hybridoma (Balb/c mice immunised with the KLH-conjugated Tn-cMET glycopeptide)
B4: 8H3.2B9.2C7 (antibody, V domains shown)
VH: B1 VH with K40R, D56G, V58I, R59K, S61N, G66D
VL: DVQITQSPSYLAASPGETITINCRASKSVSEYLAWYQEKPGKTNKLLIYSGSTLHSGIPSRFSGSGSGTDFTLTITSLAPEDFAMYFCQQHNEYPFTFGAGTKLELK
notes: Mouse monoclonal antibody from a hybridoma; also called GO-8H3
B5: 39A3 (antibody, V domains shown)
VH: QSLEEYGGDLVKPGASLTLTCTASGLDFSGIYWACWVRQAPGKGLEWIACMDNRVTYATWAKGRFTSSKTSSTTVTLQMTSLTAADTATYFCARGGYGGRGLVFNLWGQGTLVTVSS
VL: DPVLTQTPPSVSAAVGGTVTIKCQSSQSVYNNNELSWYQQKPGQPPKLLIYDASTLASGVPSRFKGSGSGTQFTLTISGVQCDDAATYYCQGIYYIGDWYSAFGGGTEVVVKG
notes: Rabbit monoclonal antibody cloned from B cells

What follows are binders tested against T2, MUC1-Tn (assay: BLI (Octet), peptide on biosensor, apparent affinity).
T2 construct: Specificity control in the Biacore and Octet assays

Kd | Binder
2000 nM | B1

Biological target: T1, cMET-Tn peptide PTKSFISGGSTITGVGKNLN, …
Assay: as above

Kd | Binder
1.5 nM | B2
2.83 nM | B3
7 nM | B4
19.2 nM | B1
52 nM | B5

Biological target: T1, cMET-Tn peptide PTKSFISGGSTITGVGKNLN, …
Assay: SPR (Biacore), antibody immobilised, peptide as analyte
Description: Antibody affinity assays can be carried out using surface plasmon resonance (e.g., using a Biacore system (Cytiva)). In a surface plasmon resonance assay, one or more antibodies can be immobilized onto a biosensor and presented with an analyte (e.g., the cMET-Tn peptide Biotin-[…] (the amino acid portion of which is SEQ ID NO: 285; bold and underlined residues indicate GalNAc glycosylation sites) or a negative control analyte such as an unglycosylated cMET peptide (Biotin-[…] (the amino acid portion of which is SEQ ID NO:286)). The antibodies are contacted with different concentrations of the analyte, for example concentrations of 2.5 nM, 7.4 nM, 22 nM, 66 nM and 200 nM. Affininty is measured using multi-cycle kinetics in triplicate for each analyte concentration, with 1 min association and 5 min dissociation. […] The affinity is determined by fitting the binding curve to a specific model: kinetic fit (1:1 model) or if applicable heterogenous ligand binding model. The error (>95% confidence) was calculated by how close the generated curve matches the model.

Kd | Binder
7 nM | B3
6.26 nM | B4
1.43 nM | B1
